{"source": "paper PMC9537594", "about": "(2022)", "binders": {"B1": {"name": "GST-CPSF6_(261-358)(LCR-FG-LCR) (domain or fragment)", "chain": "SDIIPTTENLYFQGAIAEIPIFGLKAGQTPPRPPLGPPGPPGPPGPPPPGQVLPPPLAGPPNRGDRPPPPVLFPGQPFGQPPLGPLPPGPPPPVPGYGPPPGPPPPQQGPPPPPG"}, "B2": {"name": "GST-NUP153_(1306-1450)(LCR-FG-LCR) (domain or fragment)", "chain": "FGTGPSAPSASPAFGANQTPTFGQSQGASQPNPPGFGSISSSTALFPTGSQPAPPTFGTVSSSSQPPVFGQQPSQSAFGSGTTPNSSSAFQFGSSTTNFNFTNNSPSGVFTFGANSSTPAASAQPSGSGGFPFNQSPAAFTVGSN"}, "B3": {"name": "GST-SEC24C_(196-314)(LCR-FG-LCR) (domain or fragment)", "chain": "HPGIQTPQRSAPSQASSFTPPASGGPRLPSMTGPLLPGQSFGGPSVSQPNHVSSPPQALPPGTQMTGPLGPLPPMHSPQQPGYQPQQNGSFGPARGPQSNYGGPYPAAPTFGSQPGPPQ"}}, "data": [{"molecular_target": "Native HIV-1 cores (mature CA lattice of hexamers and pentamers) (HIV-1)", "units": {"Kd": "nM"}, "values": [{"binder": "B1", "Kd": 890}, {"binder": "B2", "Kd": 310}, {"binder": "B3", "Kd": 810}]}]}
